From the Human Domainome abundance scans (Beltran et al. 2025)
± gives the uncertainty stated by the source.

B1: Peroxisome proliferator-activated receptor delta, residues 71 to 145; numbered along this chain, Q03181 (parent)
chain: NMECRVCGDKASGFHYGVHACEGCKGFFRRTIRMKLEYEKCERSCKIQKKNRNKCQYCRFQKCLALGMSHNAIRF

Variants of: B1
Test: abundance fitness (aPCA) (normalised: wild type 0, dead -1); higher = more abundant; growth selection in yeast, the domain comes from the species named
Conditions: Homo sapiens

Variant	abundance fitness
Y57K	-0.507 ± 0.1
Y57Q	-0.862 ± 0.17
Y57F	-0.186 ± 0.1
Y57A	-0.355 ± 0.064
Y57W	-0.125 ± 0.054
Y57T	-0.77 ± 0.16
Y57N	-0.946 ± 0.27
Y57L	-0.765 ± 0.12
Y57H	-0.177 ± 0.12
Y57S	-0.35 ± 0.061
Y57G	-0.746 ± 0.085
Y57R	-0.671 ± 0.069
Y57I	-0.919 ± 0.36
Y57C	-0.305 ± 0.13
Y57P	-0.961 ± 0.18
Y57D	-0.335 ± 0.11
Y57V	-0.675 ± 0.087
Y57E	-0.601 ± 0.084
Y57M	-0.867 ± 0.22
C58T	-0.957 ± 0.15
C58M	-0.63 ± 0.11
C58R	-0.771 ± 0.069
C58Y	-0.432 ± 0.16
C58A	-0.688 ± 0.078

Variant	abundance fitness
C58E	-0.925 ± 0.12
C58N	-1.09 ± 0.34
C58D	-0.719 ± 0.17
C58L	-0.769 ± 0.086
C58K	-0.825 ± 0.13
C58F	-1 ± 0.24
C58W	-0.723 ± 0.089
C58V	-0.944 ± 0.097
C58Q	-0.848 ± 0.17
C58G	-0.822 ± 0.068
C58I	-0.82 ± 0.31
C58P	-1.04 ± 0.18
K62L	-0.318 ± 0.051
K62Y	-0.441 ± 0.13
K62R	-0.193 ± 0.041
K62P	-0.824 ± 0.12
K62W	-0.646 ± 0.092
K62V	-0.569 ± 0.078
K62S	-0.645 ± 0.092
K62A	-0.056 ± 0.046
K62I	-0.245 ± 0.099
K62E	-0.447 ± 0.078
K62T	-0.234 ± 0.063
K62G	-0.661 ± 0.074

Variant	abundance fitness
K62H	-0.522 ± 0.14
K62D	-0.671 ± 0.15
K62Q	-0.293 ± 0.077
K62F	-0.418 ± 0.13
K62C	-0.543 ± 0.13
K62M	-0.328 ± 0.076
I73E	0.288 ± 0.043
I73D	0.119 ± 0.055
I73C	0.047 ± 0.057
I73H	-0.017 ± 0.069
I73P	0.215 ± 0.044
I73Y	-0.097 ± 0.072
I73N	0.039 ± 0.077
I73W	-0.152 ± 0.049
I73G	0.136 ± 0.033
I73R	-0.117 ± 0.036
I73A	0.202 ± 0.038
I73K	-0.05 ± 0.062
I73S	0.071 ± 0.035
I73F	-0.094 ± 0.069
I73Q	0.078 ± 0.053
I73M	0.137 ± 0.051
I73L	0.087 ± 0.037
I73T	0.184 ± 0.041

Variant	abundance fitness
H70D	0.394 ± 0.1
H70G	0.048 ± 0.055
H70S	0.015 ± 0.067
H70P	0.185 ± 0.12
H70Q	0.108 ± 0.095
H70K	0.019 ± 0.1
H70R	0.063 ± 0.052
H70I	0.198 ± 0.09
H70F	0.039 ± 0.15
H70C	-0.206 ± 0.12
H70N	0.013 ± 0.087
H70E	0.172 ± 0.091
H70A	0.02 ± 0.084
H70T	0.157 ± 0.11
H70V	0.099 ± 0.065
H70W	-0.177 ± 0.072
H70Y	-0.162 ± 0.14
H70M	0.09 ± 0.08
Q61M	-0.061 ± 0.053
Q61A	-0.069 ± 0.039
Q61R	-0.296 ± 0.038
Q61Y	-0.227 ± 0.12
Q61G	-0.639 ± 0.055
Q61H	-0.248 ± 0.092

Variant	abundance fitness
Q61P	-0.666 ± 0.12
Q61I	-0.254 ± 0.1
Q61N	-0.359 ± 0.095
Q61F	-0.909 ± 0.3
Q61D	-0.751 ± 0.22
Q61T	-0.304 ± 0.062
Q61V	-0.243 ± 0.039
Q61E	-0.037 ± 0.041
Q61S	-0.248 ± 0.056
Q61L	-0.439 ± 0.053
Q61C	-0.615 ± 0.19
Q61W	-0.699 ± 0.094
Q61K	-0.098 ± 0.056
S69C	-0.138 ± 0.063
S69W	-0.191 ± 0.059
S69R	-0.162 ± 0.042
S69A	-0.007 ± 0.045
S69K	0.023 ± 0.051
S69V	-0.057 ± 0.043
S69H	-0.045 ± 0.089
S69P	-0.461 ± 0.092
S69N	-0.118 ± 0.08
S69F	-0.268 ± 0.075
S69L	-0.053 ± 0.047

Variant	abundance fitness
S69Y	-0.213 ± 0.095
S69G	-0.001 ± 0.035
S69D	0.147 ± 0.05
S69T	-0.013 ± 0.052
S69Q	0.088 ± 0.058
S69M	0.029 ± 0.054
S69E	0.022 ± 0.043
A72T	-0.248 ± 0.065
A72S	0.052 ± 0.04
A72R	-0.257 ± 0.043
A72Y	-0.156 ± 0.09
A72N	-0.092 ± 0.084
A72L	-0.144 ± 0.041
A72E	0.122 ± 0.042
A72Q	0.008 ± 0.058
A72I	-0.297 ± 0.1
A72D	0.132 ± 0.048
A72C	-0.126 ± 0.063
A72M	0.019 ± 0.059
A72G	0.059 ± 0.03
A72K	-0.175 ± 0.067
A72F	-0.27 ± 0.1
A72H	0.047 ± 0.069
A72W	-0.353 ± 0.061

Variant	abundance fitness
A65F	-0.19 ± 0.073
A65N	-0.026 ± 0.064
A65H	-0.288 ± 0.089
A65I	-0.162 ± 0.11
A65Y	-0.301 ± 0.11
A65P	-0.819 ± 0.14
A65T	-0.073 ± 0.051
A65E	-0.003 ± 0.042
A65C	-0.295 ± 0.083
A65W	-0.231 ± 0.049
A65R	-0.086 ± 0.032
A65K	-0.073 ± 0.048
A65G	-0.185 ± 0.035
A65Q	-0.001 ± 0.052
A65D	0.092 ± 0.056
A65V	-0.075 ± 0.043
A65S	-0.011 ± 0.037
A65L	-0.098 ± 0.036
C63A	-0.585 ± 0.077
C63Y	-0.232 ± 0.078
C63G	-0.591 ± 0.06
C63K	-0.791 ± 0.14
C63S	-0.905 ± 0.11
